Results as given in patent US20220324953A1 (JIANGSU HENGRUI MEDICINE, published 2022).

Columns and labels:
[1] = molecular target: T1, Cynomolgus CTGF-Fc (fusion protein of cynomolgus CTGF coding region with Fc) (cynomolgus); test: ELISA, cyno-CTGF-Fc captured by anti-mFc
T1 construct: also called cyno-CTGF-mFc protein; cyno-CTGF protein with Fc tag
Description: The binding activity of anti-monkey CTGF antibody to monkey CTGF protein was tested by ELISA assay. A 96-well microtiter plate was directly coated with anti-mFc protein, and then the cyno-CTGF protein with Fc tag was bound to the plate, and then the antibody was added. The signal strength upon the addition of the antibody was used to determine the binding activity of the antibody to cyno-CTGF. The specific experimental procedures were as follows:
The anti-mFc Protein (Sigma, Cat No. M4280) was diluted with PBS, pH 7.4 (Shanghai Yuanpei, Cat No. B320) buffer to a concentration of 2 μg/ml, which was added into the 96-well microtiter plate (Corning, Cat No. CLS3590-100EA) at 50 μl/well, and incubated in an incubator at 37° C. for 2 hours. The liquid was removed, 250 μl/well blocking solution (5% skim milk (BD skim milk, Cat No.232100) diluted in PBS) was added, and incubated in an incubator at 37° C. for 3 hours or at 4° C. overnight (16-18 hours) for blocking. After the blocking was finished, the blocking solution was removed, the plate was washed for 3 times with PBST buffer (PBS containing 0.1% Tween-20, pH 7.4), 50 μl of 1 μg/ml cyno-CTGF-mFc protein was added into each well, incubated in an incubator at 37° C. for 1 hour, and then the plate was washed for 3 times with PBST buffer (PBS containing 0.1% Tween-20, pH 7.4). 50 μl/well of various concentrations of each of the test antibodies (antibodies purified from hybridoma or humanized antibodies) diluted with sample dilution solution were added, and incubated in an incubator at 37° C. for 1 hours. After the incubation was finished, the plate was washed for 3 times with PBST, 50 μl/well of HRP-labeled goat anti-mouse secondary antibody (Jackson Immuno Research, Cat No. 115-035-003) or goat anti-human secondary antibody (Jackson Immuno Research, Cat No. 109-035-003) diluted with sample dilution solution was added, and incubated at 37° C. for 1 hour. The plate was washed for 5 times with PBST, 50 μl/well of TMB chromogenic substrate (KPL, Cat No. 52-00-03) was added, incubated at room temperature for 5-10 min, and 50 μl/well of 1 M H₂SO₄ was added to stop the reaction. The absorbance value was read by a microplate reader (Molecular Devices, VERSA max) at a wavelength of 450 nm, and the data was analyzed with GraphPad Prism 5. The binding of CTGF antibody to cyno CTGF protein was calculated as EC50 value.

[2] = molecular target: T2, human CTGF (antigen of the Biacore assays) (human, UniProt P29279 27-349); test: Biacore, antibody captured on Protein A, CTGF in flow, 1:1 fit
T2 construct: also called antigen human CTGF; human CTGF protein
T2 sequence (looked up): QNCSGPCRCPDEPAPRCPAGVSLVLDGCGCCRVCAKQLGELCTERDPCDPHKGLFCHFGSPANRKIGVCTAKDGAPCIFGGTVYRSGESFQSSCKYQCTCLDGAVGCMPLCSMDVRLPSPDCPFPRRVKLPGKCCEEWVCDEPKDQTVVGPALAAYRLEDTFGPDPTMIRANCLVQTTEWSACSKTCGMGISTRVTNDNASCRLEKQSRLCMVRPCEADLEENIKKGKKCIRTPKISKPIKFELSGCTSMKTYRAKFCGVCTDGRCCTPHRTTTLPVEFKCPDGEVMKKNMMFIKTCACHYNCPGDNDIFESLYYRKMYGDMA
Text: (§1) A certain amount of each of the test antibodies was affinity-captured with Protein A biosensor chip (Cat. # 29127556, GE), and then a certain concentration of human or mouse CTGF was allowed to flow through the surface of the chip. The reaction signals were detected in real time with Biacore instrument to generate a binding and dissociation curve. After the dissociation was completed in each cycle, the biosensor chip was washed and regenerated with Glycine-HCl regeneration solution pH 1.5 (Cat. # BR-1003-54, GE). The running buffer for the assay was 1×HBS-EP buffer solution (Cat. # BR-1001-88, GE).

[3] = molecular target: T3, mouse CTGF (antigen of the Biacore assay) (mouse, UniProt P29268 26-348); test: Biacore, antibody captured on Protein A, mouse CTGF in flow, 1:1 fit
T3 construct: also called mouse CTGF protein
T3 sequence (looked up): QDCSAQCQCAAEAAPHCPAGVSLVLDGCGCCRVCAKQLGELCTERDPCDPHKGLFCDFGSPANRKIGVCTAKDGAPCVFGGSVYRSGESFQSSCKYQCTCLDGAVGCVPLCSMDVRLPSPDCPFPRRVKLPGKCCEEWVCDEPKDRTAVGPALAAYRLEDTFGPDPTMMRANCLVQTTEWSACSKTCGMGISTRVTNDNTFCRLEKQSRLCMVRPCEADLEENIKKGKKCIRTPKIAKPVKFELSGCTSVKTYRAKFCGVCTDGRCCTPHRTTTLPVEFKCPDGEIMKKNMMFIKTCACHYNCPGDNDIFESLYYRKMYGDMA
Text: as §1

T1 sequence (chain, as listed by the source limits assumed): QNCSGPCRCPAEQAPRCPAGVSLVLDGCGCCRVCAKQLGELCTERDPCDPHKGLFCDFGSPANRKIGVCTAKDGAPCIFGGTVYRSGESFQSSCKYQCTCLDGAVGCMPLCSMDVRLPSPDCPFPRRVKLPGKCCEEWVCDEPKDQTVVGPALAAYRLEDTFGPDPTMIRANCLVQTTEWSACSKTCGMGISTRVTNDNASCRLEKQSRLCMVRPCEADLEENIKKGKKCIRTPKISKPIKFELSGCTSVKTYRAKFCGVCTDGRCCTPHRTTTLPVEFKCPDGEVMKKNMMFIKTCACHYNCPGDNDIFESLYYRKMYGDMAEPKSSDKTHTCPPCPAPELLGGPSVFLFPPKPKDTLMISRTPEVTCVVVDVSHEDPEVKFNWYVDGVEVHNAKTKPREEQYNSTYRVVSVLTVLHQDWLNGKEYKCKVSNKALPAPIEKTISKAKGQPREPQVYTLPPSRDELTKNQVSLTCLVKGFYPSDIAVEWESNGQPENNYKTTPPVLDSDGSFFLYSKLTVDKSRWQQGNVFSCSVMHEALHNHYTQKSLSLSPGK

B1: Hu147-22wk (antibody, human IgG1, kappa, V domains shown)
VH: EVQLVESGGGLVQPGGSLRLSCAASGFTFNTYAMNWVRQAPGKGLEWVARIRTKSNNYATYYADSVKDRFTISRDDSKNSLYLQMNSLKTEDTAVYYCVETGFAYWDQGTLVTVSS
VL: EIVLTQSPATLSLSPGERATLSCSASSSVSYMHWFQQKPGQSPKLLIYSTSNLASGIPARFSGSGSGTDYTLTISSLEPEDFAVYYCQQRSSYPLTFGQGTKLEIKR
B1 was tested, and the EC50 [1] was 0.073 nM, the Kd [2] was 1.01 nM and the koff [2] was 0.0142 s⁻¹. The kon [2] was 1.4e+07 M⁻¹ s⁻¹.

B2: Hu147-11wk (antibody, human IgG1, kappa, V domains shown)
VH: EVQLVESGGGLVQPGGSLRLSCAASGFTFSTYAMNWVRQAPGKGLEWVGRIRTKSNNYATYYADSVKDRFTISRDDSKNSLYLQMNSLKTEDTAVYYCVETGFAYWDQGTLVTVSS
VL: EIVLTQSPATLSLSPGERATLSCSASSSVSYMHWFQQKPGQSPRLLIYSTSNLASGIPARFSGSGSGTDYTLTISSLEPEDFAVYYCQQRSSYPLTFGQGTKLEIKR
For B2, the EC50 [1] was 0.052 nM, the Kd [3] was 3.11 nM and the koff [3] was 0.374 s⁻¹. The kon [3] was 1.2e+08 M⁻¹ s⁻¹, the Kd [2] was 1.13 nM and the koff [2] was 0.0336 s⁻¹. It also gave a kon [2] of 2.98e+07 M⁻¹ s⁻¹.

B3: Hu147-13wk (antibody, human IgG1, kappa, V domains shown)
VH: EVQLVESGGGLVQPGGSLRLSCAASGFTFSTYAMNWVRQAPGKGLEWVGRIRTKSNNYATYYADSVKDRFTISRDDSKNSLYLQMNSLKTEDTAVYYCVETGFAYWDQGTLVTVSS
VL: EIVLTQSPATLSLSPGERATLSCSASSSVSYMHWFQQKPGQSPKLWIYSTSNLASGVPARFSGSGSGTDYTLTISSLEPEDFAVYYCQQRSSYPLTFGQGTKLEIKR
B3 gave an EC50 [1] of 0.043 nM, a Kd [3] of 2.55 nM and a koff [3] of 0.146 s⁻¹. The kon [3] was 5.73e+07 M⁻¹ s⁻¹, the Kd [2] was 0.808 nM and the koff [2] was 0.024 s⁻¹. It also gave a kon [2] of 2.97e+07 M⁻¹ s⁻¹.

B4: Hu147-21wk (antibody, human IgG1, kappa, V domains shown)
VH: EVQLVESGGGLVQPGGSLRLSCAASGFTFNTYAMNWVRQAPGKGLEWVARIRTKSNNYATYYADSVKDRFTISRDDSKNSLYLQMNSLKTEDTAVYYCVETGFAYWDQGTLVTVSS
VL: EIVLTQSPATLSLSPGERATLSCSASSSVSYMHWFQQKPGQSPRLLIYSTSNLASGIPARFSGSGSGTDYTLTISSLEPEDFAVYYCQQRSSYPLTFGQGTKLEIKR
For B4, the EC50 [1] was 0.053 nM, the Kd [2] was 0.974 nM and the koff [2] was 0.0162 s⁻¹. For the same binder, the kon [2] was 1.66e+07 M⁻¹ s⁻¹.

B5: Hu147-23wk (antibody, human IgG1, kappa, V domains shown)
VH: EVQLVESGGGLVQPGGSLRLSCAASGFTFNTYAMNWVRQAPGKGLEWVARIRTKSNNYATYYADSVKDRFTISRDDSKNSLYLQMNSLKTEDTAVYYCVETGFAYWDQGTLVTVSS
VL: EIVLTQSPATLSLSPGERATLSCSASSSVSYMHWFQQKPGQSPKLWIYSTSNLASGVPARFSGSGSGTDYTLTISSLEPEDFAVYYCQQRSSYPLTFGQGTKLEIKR
In the case of B5, the EC50 [1] is reported as 0.063 nM, the Kd [3] is reported as 2.12 nM and the koff [3] is reported as 0.173 s⁻¹. The kon [3] was 8.18e+07 M⁻¹ s⁻¹, the Kd [2] was 0.818 nM and the koff [2] was 0.0112 s⁻¹. For the same binder, the kon [2] was 1.37e+07 M⁻¹ s⁻¹.

B6: Hu147-31wk (antibody, human IgG1, kappa, V domains shown)
VH: EVQLVESGGGLVQPGGSLRLSCAASGFSFNTYAMNWVRQAPGKGLEWVARIRTKSNNYATYYADSVKDRFTISRDDSESSLYLQMNSLKTEDTAVYYCVETGFAYWDQGTLVTVSS
VL: EIVLTQSPATLSLSPGERATLSCSASSSVSYMHWFQQKPGQSPRLLIYSTSNLASGIPARFSGSGSGTDYTLTISSLEPEDFAVYYCQQRSSYPLTFGQGTKLEIKR
B6 gave an EC50 [1] of 0.07 nM, a Kd [3] of 2.79 nM and a koff [3] of 0.107 s⁻¹. The kon [3] was 3.83e+07 M⁻¹ s⁻¹, the Kd [2] was 0.894 nM and the koff [2] was 0.0159 s⁻¹. It also gave a kon [2] of 1.78e+07 M⁻¹ s⁻¹.

B7: Hu147-32wk (antibody, human IgG1, kappa, V domains shown)
VH: EVQLVESGGGLVQPGGSLRLSCAASGFSFNTYAMNWVRQAPGKGLEWVARIRTKSNNYATYYADSVKDRFTISRDDSESSLYLQMNSLKTEDTAVYYCVETGFAYWDQGTLVTVSS
VL: EIVLTQSPATLSLSPGERATLSCSASSSVSYMHWFQQKPGQSPKLLIYSTSNLASGIPARFSGSGSGTDYTLTISSLEPEDFAVYYCQQRSSYPLTFGQGTKLEIKR
With B7 the EC50 [1] was 0.079 nM, the Kd [3] was 2.49 nM and the koff [3] was 0.343 s⁻¹. The kon [3] was 1.37e+08 M⁻¹ s⁻¹, the Kd [2] was 0.91 nM and the koff [2] was 0.0133 s⁻¹. The kon [2] was 1.46e+07 M⁻¹ s⁻¹.

B8: positive control CTGF antibody mAb1 (antibody, V domains shown)
VH: EGQLVQSGGGLVHPGGSLRLSCAGSGFTFSSYGMHWVRQAPGKGLEWVSGIGTGGGTYSTDSVKGRFTISRDNAKNSLYLQMNSLRAEDMAVYYCARGDYYGSGSFFDCWGQGTLVTVSS
VL: DIQMTQSPSSLSASVGDRVTITCRASQGISSWLAWYQQKPEKAPKSLIYAASSLQSGVPSRFSGSGSGTDFTLTISSLQPEDFATYYCQQYNSYPPTFGQGTKLEIKR
notes: Positive control, from CN1829740B; also called pamrevlumab; FG-3019
For B8, the EC50 [1] was 0.086 nM.

B9: Hu147-14wk (antibody, human IgG1, kappa, V domains shown)
VH: EVQLVESGGGLVQPGGSLRLSCAASGFTFSTYAMNWVRQAPGKGLEWVGRIRTKSNNYATYYADSVKDRFTISRDDSKNSLYLQMNSLKTEDTAVYYCVETGFAYWDQGTLVTVSS
VL: DIQMTQSPSSLSASVGDRVTITCSASSSVSYMHWFQQKPGKSPKLLIYSTSNLASGVPSRFSGSGSGTDYTLTISSLQPEDFATYYCQQRSSYPLTFGQGTKLEIKR
Work on B9 yielded an EC50 [1] of 0.077 nM, a Kd [2] of 1.13 nM and a koff [2] of 0.0554 s⁻¹. The kon [2] was 4.89e+07 M⁻¹ s⁻¹.

B10: Hu147-15wk (antibody, human IgG1, kappa, V domains shown)
VH: EVQLVESGGGLVQPGGSLRLSCAASGFTFSTYAMNWVRQAPGKGLEWVGRIRTKSNNYATYYADSVKDRFTISRDDSKNSLYLQMNSLKTEDTAVYYCVETGFAYWDQGTLVTVSS
VL: DIQLTQSPSSLSASVGDRVTITCSASSSVSYMHWFQQKPGKSPKLWIYSTSNLASGVPSRFSGSGSGTDYTLTISSLQPEDFATYYCQQRSSYPLTFGQGTKLEIKR
With B10 the EC50 [1] was 0.053 nM.

B11: Hu147-24wk (antibody, human IgG1, kappa, V domains shown)
VH: EVQLVESGGGLVQPGGSLRLSCAASGFTFNTYAMNWVRQAPGKGLEWVARIRTKSNNYATYYADSVKDRFTISRDDSKNSLYLQMNSLKTEDTAVYYCVETGFAYWDQGTLVTVSS
VL: DIQMTQSPSSLSASVGDRVTITCSASSSVSYMHWFQQKPGKSPKLLIYSTSNLASGVPSRFSGSGSGTDYTLTISSLQPEDFATYYCQQRSSYPLTFGQGTKLEIKR
Work on B11 yielded an EC50 [1] of 0.08 nM.

B12: Hu147-34wk (antibody, human IgG1, kappa, V domains shown)
VH: EVQLVESGGGLVQPGGSLRLSCAASGFSFNTYAMNWVRQAPGKGLEWVARIRTKSNNYATYYADSVKDRFTISRDDSESSLYLQMNSLKTEDTAVYYCVETGFAYWDQGTLVTVSS
VL: DIQMTQSPSSLSASVGDRVTITCSASSSVSYMHWFQQKPGKSPKLLIYSTSNLASGVPSRFSGSGSGTDYTLTISSLQPEDFATYYCQQRSSYPLTFGQGTKLEIKR
Binder B12 has an EC50 [1] of 0.144 nM, a Kd [2] of 1.05 nM and a koff [2] of 0.0155 s⁻¹. For the same binder, the kon [2] was 1.47e+07 M⁻¹ s⁻¹.
